Data published in paper PMC11633510.

How the values were obtained:
[1] = molecular target: Recombinant Protein A (UniProt P38507); assay: MetaSPR; double-layer (Ti-Ag-Au) nanocup array chip, 96-well; Protein A (20 µg/mL in CBS buffer) immobilised 16 h, blocked with 1% BSA; IgG 0.1-66.7 nM in PBS; 10 min association, 15 min dissociation
[2] = molecular target: Recombinant Protein A (UniProt P38507); assay: MetaSPR; triple-layer (Ti-Au-Ag-Au) nanocup array chip, 96-well; Protein A (20 µg/mL in CBS buffer) immobilised 16 h, blocked with 1% BSA; IgG 0.1-66.7 nM in PBS; 10 min association, 15 min dissociation
[3] = molecular target: Recombinant Protein A (UniProt P38507); assay: MetaSPR; quantitative detection by differential absorption spectra, dual-wavelength OD difference (OD615-OD590); triple-layer chip; Protein A immobilised; IgG 0-10 µg/mL
[4] = molecular target: Recombinant Protein A (UniProt P38507); assay: MetaSPR; single-layer (Ti-Au) nanocup array chip, 96-well; Protein A (20 µg/mL in CBS buffer) immobilised 16 h, blocked with 1% BSA; IgG 0.1-66.7 nM in PBS; 10 min association, 15 min dissociation
[5] = molecular target: Recombinant Protein A (UniProt P38507); assay: MetaSPR; quadruple-layer (Ti-Ag-Au-Ag-Au) nanocup array chip, 96-well; Protein A (20 µg/mL in CBS buffer) immobilised 16 h, blocked with 1% BSA; IgG 0.1-66.7 nM in PBS; 10 min association, 15 min dissociation

Substance “Immunoglobulin Antigen (Human IgG) (antibody)” has a Kd [1] of 0.116 nM, a Kd [2] of 0.122 nM and a maximum reaction value (dual-wavelength OD difference) at the highest IgG concentration (10 µg/mL) [3] of 0.435. For the same substance, the Kd [4] was 0.24 nM and the Kd [5] was 0.218 nM.
